Earlier results, collected in article PMC8525647.

Biological target: RAG2 (Homo sapiens) (UniProt P55895)
Sequence of UniProt P55895 (P55895 whole entry): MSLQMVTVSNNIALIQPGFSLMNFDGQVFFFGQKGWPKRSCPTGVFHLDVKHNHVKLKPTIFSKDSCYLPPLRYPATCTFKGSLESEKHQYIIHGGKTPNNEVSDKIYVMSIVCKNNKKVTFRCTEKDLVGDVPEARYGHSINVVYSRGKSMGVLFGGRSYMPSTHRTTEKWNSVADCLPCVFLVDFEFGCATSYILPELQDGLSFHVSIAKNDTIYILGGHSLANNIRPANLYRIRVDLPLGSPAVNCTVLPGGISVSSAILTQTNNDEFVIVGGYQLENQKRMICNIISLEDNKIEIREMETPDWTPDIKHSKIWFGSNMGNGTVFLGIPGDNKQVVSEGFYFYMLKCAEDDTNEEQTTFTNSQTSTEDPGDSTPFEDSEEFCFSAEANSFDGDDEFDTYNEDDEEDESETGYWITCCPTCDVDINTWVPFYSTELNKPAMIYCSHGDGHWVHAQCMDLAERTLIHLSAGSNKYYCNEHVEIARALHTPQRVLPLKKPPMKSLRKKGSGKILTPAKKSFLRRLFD

Kd: 400 nM
Substance: RAG1 (from UniProt P15918)
